other: Relative binding (residual antibody binding to coated Lu-Fc with the mutant protein as competitor) and other: Relative binding (residual antibody binding to coated antigen with the mutant protein as competitor) data for 9 molecules are collected here from paper PMC5218393.

Residue numbers refer to the chain shown, from its start. Names and notes keep the numbering of the source.

In this test the target is C7 scFv (soluble, purified). Kind of test: competition ELISA. To be noted: chain shown with the change, competition format: a low value means the soluble protein binds the scFv, read off a plot; for other: Relative binding (residual antibody binding to coated Lu-Fc with the mutant protein as competitor): mutant protein mixed with diluted C7 scFv, wells coated with Lu-Fc; for other: Relative binding (residual antibody binding to coated antigen with the mutant protein as competitor): C7 scFv 0.6 μg/ml mixed with the mutant protein.
Sequence of C7 scFv (soluble, purified) (chain, as listed by the source, chain 1 of 2): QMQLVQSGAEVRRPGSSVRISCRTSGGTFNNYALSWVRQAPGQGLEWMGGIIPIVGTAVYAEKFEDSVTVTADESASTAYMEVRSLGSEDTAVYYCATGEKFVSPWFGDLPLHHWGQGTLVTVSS
Sequence of C7 scFv (soluble, purified) (chain, as listed by the source, chain 2 of 2): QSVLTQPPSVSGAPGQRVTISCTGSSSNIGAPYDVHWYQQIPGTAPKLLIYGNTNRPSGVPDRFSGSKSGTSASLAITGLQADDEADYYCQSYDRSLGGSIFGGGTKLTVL

B1: recombinant Lu extracellular domain fused with an Fc-Tag (Lu-Fc), P50895 H257R (protein)
chain: EVRLSVPPLVEVMRGKSVILDCTPTGTHDHYMLEWFLTDRSGARPRLASAEMQGSELQVTMHDTRGRSPPYQLDSQGRLVLAEAQVGDERDYVCVVRAGAAGTAEATARLNVFAKPEATEVSPNKGTLSVMEDSAQEIATCNSRNGNPAPKITWYRNGQRLEVPVEMNPEGYMTSRTVREASGLLSLTSTLYLRLRKDDRDASFHCAAHYSLPEGRHGRLDSPTFRLTLHYPTEHVQFWVGSPSTPAGWVREGDTVQLLCRGDGSPSPEYTLFRLQDEQEEVLNVNLEGNLTLEGVTRGQSGTYGCRVEDYDAADDVQLSKTLELRVAYLDPLELSEGKVLSLPLNSSAVVNCSVHGLPTPALRWTKDSTPLGDGPMLSLSSITFDSNGTYVCEASLPTVPVLSRTQNFTLLVQGSPELKTAEIEPKADGSWREGDEVTLICSARGHPDPKLSWSQLGGSPAEPIPGRQGWVSSSLTLKVTSALSRDGISCEASNPHGNKRHVFHFGTVSPQTSQA
B1 yielded an other: Relative binding (residual antibody binding to coated Lu-Fc with the mutant protein as competitor) of 3%.

B2: recombinant Lu extracellular domain fused with an Fc-Tag (Lu-Fc), P50895 S242D (protein)
chain: B1 chain with S211D, R226H
In the case of B2, the other: Relative binding (residual antibody binding to coated Lu-Fc with the mutant protein as competitor) amounted to 18%.

B3: recombinant Lu extracellular domain fused with an Fc-Tag (Lu-Fc), P50895 P254H (protein)
chain: B1 chain with P223H, R226H
On to B3, for which the other: Relative binding (residual antibody binding to coated antigen with the mutant protein as competitor) (parent: est. 5) was 3%.

B4: recombinant Lu extracellular domain fused with an Fc-Tag (Lu-Fc), P50895 R247Q (protein)
chain: B1 chain with R216Q, R226H
B4 had an other: Relative binding (residual antibody binding to coated Lu-Fc with the mutant protein as competitor) of 87%.

B5: recombinant Lu extracellular domain fused with an Fc-Tag (Lu-Fc), P50895 R175N (protein)
chain: B1 chain with R144N, R226H
As to B5, the other: Relative binding (residual antibody binding to coated antigen with the mutant protein as competitor) (parent: est. 5) came out at 4%.

B6: recombinant Lu extracellular domain fused with an Fc-Tag (Lu-Fc), P50895 E245S (protein)
chain: B1 chain with E214S, R226H
Take B6: the other: Relative binding (residual antibody binding to coated Lu-Fc with the mutant protein as competitor) came out at 22%.

B7: recombinant Lu extracellular domain fused with an Fc-Tag (Lu-Fc), P50895 A149D (protein)
chain: B1 chain with A118D, R226H
As for B7, the other: Relative binding (residual antibody binding to coated antigen with the mutant protein as competitor) (parent: est. 5) is 3%.

B8: mouse Lu-Fc (MsLu-Fc), Q9R069 D142A; N168R; H247P (protein)
chain: ELHVSVPPRVEVMRGEQVALDCTPREHPEHYVLEWFLVDGTGARHRLASVEPQGSEFLGTVHSLGRVPPYEVDSRGRLVIAKVQVGDGRDYVCVVKAGAAGTSEATSSVRVFATPEATEVSPNKGTLSVMDQFAQEIATCSSRNGNPVPRITWYRNGQRLEVPMEVNQKGYITIRTVREASGLYSLTSTLYLRLHKDDRDANFHCAAHYDLPSGQHGRLDSPTFRLTLHYPTEHVEFWVGSPSTTEGWVREGDAVQLLCQGDGSPSPEYSFFRQQGTQEEQLNVNLKGNLTLERVHRNQSGIYGCRVEDYDADEEVQLVKKLKLHVAYLDPLELSVPEELFVFLNSSSTVVNCSARGLPTPTVRWTKDSVTLADGPMLSLQSVTFDSAGTYTCEASTPTVPLLSRTQSFQLIVQGAPELKPNEIMPKSGNSWTEGDEVMLTCSARGFPEPKLTWSQRGDTPAEPPFEGRGWKSSSLMVKVTSALSREGVSCEASNIHGKKGHVFHFGSVAPQTAQA
As to B8, the other: Relative binding (residual antibody binding to coated antigen with the mutant protein as competitor) (parent: est. 110) was determined as 95%.

B9: mouse Lu-Fc (MsLu-Fc), Q9R069 Q240R (protein)
chain: B8 chain with A117D, R143N, Q215R, P222H
B9: the other: Relative binding (residual antibody binding to coated Lu-Fc with the mutant protein as competitor) amounted to 14%.
